Measured values taken from the nanobody polyreactivity screen of Harvey et al. (2022).

Assay: yeast display, Sf9 membrane polyspecificity reagent, FACS + sequencing; frameworks hold sequencing errors
Outline: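 Polyreactivity labels are assigned by the sorting gate from which each nanobody was recovered. The gates were low and high (top ~1%), set on anti-HA fluorescence for expression and streptavidin fluorescence for reagent binding. Before sorting, galactose-induced (36–48 hours) yeast display cells were stained for 1 hour at 4 °C with 10% biotinylated, detergent-solubilized Sf9 membrane reagent.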

Q: For “QVQLVESGGGLVQAGGSLRLSCAASGRILWGYAMGWYRQATGKERELVATITRGGSTNYADSVKGRFTISRDNAKNTFYLKMNRVKPEDTAFYDCAAGELYIVNYTYYFEMDYWGEGTQVTVSS”, which “polyreactivity (PSR sort gate)” value is on record?
A: The value was “high polyreactivity”.

Q: For “QVQLVESGGGLVQAGGSLSLICAASGSTSYRYAMGWYRQAPGKERELVAGITRSGGSTYYADSVKGRFTISRDNAKNTVYLQMNSLKPEDTAVYYCAAYYSRQYVGYGYWGQGTQVTVSS”, which “polyreactivity (PSR sort gate)” value is on record?
A: The value was “high polyreactivity”.

Q: With “QVQLVESGGGLVQAGGSLRLSCAASGRIISYYAMGWYRQAPGKERELVAAISRSGGSTYYADSVKGRFTISRDNAKNTVYLQMNSLKPEDTAVYYCAKYFRPVQGDKWGFKYWGQGTQVTVSS” as the sequence, how does the “polyreactivity (PSR sort gate)” value read?
A: The value was “high polyreactivity”.

Q: With “QVQLVESGGGLVQAGGSLRLSCAASGLIFKSYAMGWYRQAPGKERELVAAISSGGTTYYADSVKGRFTISRDNAKNTVYLQMNSLKPEDTAVYYCAAYFKQPVEPCEYWGQGTQVTVSS” as the sequence, how does the “polyreactivity (PSR sort gate)” value read?
A: Its value is “high polyreactivity”.

Q: Which “polyreactivity (PSR sort gate)” value does the source give for “QVQLVESGGGLVQAGGSLRLSCAASGFTFRQNAKGWYRQAPGKERELVAVITKSAGSTYYADSVKGRFTISRDNAKNTVYLQMNSLKPEDTAVFYCNKRQRFVSSFRRSQGIGWEDDYWGQGTQVTVSS” here?
A: Its value is “low polyreactivity”.

Q: For “QVQLVESGGGLVQAGGSLRLSCAASGSIFGANAMGWYRQAPGTVRELVAAISRRGGSTYYADSVKGRFTISRDNAKNTVHLQMNSLKPEDTAVYYCNTYPQSLGVKYGYWGQGTQVTVSS”, which “polyreactivity (PSR sort gate)” value is on record?
A: Its value is “high polyreactivity”.

Q: Which “polyreactivity (PSR sort gate)” value does the source give for “QVQLVESGGGLVQAGGSLRLSCAASGSTFYYYAMGWYRQAPGKERELVAAINYNGGSTHYADSVKGRFTISRDNAKNTVYLQMISLKPEDTAVYYCAAKYRLSYTHGYWGQGSQVTVSS” here?
A: Its value is “low polyreactivity”.

Q: With “QVQLVESGRGLVQAGGSLRLSCAASGSTFSRYTMGWYRQAPGKERELVAAISYRGGSTYYADSVKGRFTISRDNAKNTVYLQMNSLKPEDTAVYYRAAEYRVEGSDYDYWGQGTQVTVSS” as the sequence, how does the “polyreactivity (PSR sort gate)” value read?
A: Its value is “low polyreactivity”.

Q: Which “polyreactivity (PSR sort gate)” value does the source give for “QVQVVESGGGLVQAGGSLRLSCAASGRIYQYYDMGWYRQAPGKERELVATITSGGSTNYADSVKGRFTISRDNAKNTVYLQMNSLKPEDTAVYYCAALAYTASDYQPYDATEYNYWGQGTQVTVSS” here?
A: Its value is “low polyreactivity”.

Q: Which “polyreactivity (PSR sort gate)” value does the source give for “QVQLVESGGGLVQAGGSLRLSCAASGFIFRDNAMGWYRQAHGKERELVASIRSSGGRTYYADSVKGRFTISRDNAKNTVYLQMNSLKPEDTAVYYCARRWYPVTPYARMYYWGQGTQVTVSS” here?
A: The value was “low polyreactivity”.

Q: With “QVQLVESGGGLVQAGGSLSLSCAASGSTFSPYAMGWYRQAPGKERELVAAITGSTGSTYYADSVKGRFTISRDNAKNTVYLQMNCLKPEDTAVYYCAAVSSNAGHVSRRRGYYWGQGTQVTVSS” as the sequence, how does the “polyreactivity (PSR sort gate)” value read?
A: Its value is “high polyreactivity”.

Q: For “QVQLVESGGGLVQAGGSLRLNCAASGRISTYYVMGWYRQAPGKERELVAAINWSDGSTYYADSVKGRFTISRDNAKNTVYFQMNSLKPEDTAVYYCNVDAGVEGGTVDYWGQGTQVTVSS”, which “polyreactivity (PSR sort gate)” value is on record?
A: The value was “low polyreactivity”.

Q: Which “polyreactivity (PSR sort gate)” value does the source give for “QVQHVESGGGLVQAGGSLRLSCAASGRTFQWYTLGWYRQAPGKERELVAAISWSGTSTYYADSVKGRFTISRDNEKNTVYLLMNSLKPEDTAVYYCAAKTYPSLFFHYGYWGQGTQVTVSS” here?
A: The value was “low polyreactivity”.

Q: For “QVQLVESGGGLVQAGGSLRLSCAASGIFGWNAMGWYRQAPGKEREFVAGITYSGTRTYYADSVKGRFTISRDNAKNTVYLQMNSLKPEDPAVYYCAATTGHRNYRSYYWGQGTQVTVSS”, which “polyreactivity (PSR sort gate)” value is on record?
A: The value was “high polyreactivity”.

Q: With “QVQLVESGGGLVQAGGSLRLSCAASGRIFAYYVMGWYRQAPGKERELVAVISGSGSSTYYADSVKGRFTISRDNAKNTVYLQMNSLKPEDTAVYYCAASIQLYRSFITREYWGQGTQVSVSS” as the sequence, how does the “polyreactivity (PSR sort gate)” value read?
A: The value was “high polyreactivity”.

Q: For “QVQLVESGGGLVQAGGSLRLSCAASGRIFVYYAMGWYRQAPGKERELVAAITYSVDSTYYADSVKGRFTISRDNAKNTVYLQKNSLKPEDTAVYYCATDVDWAYGYQYEDWGQGTQVPVSS”, which “polyreactivity (PSR sort gate)” value is on record?
A: The value was “low polyreactivity”.

Q: Which “polyreactivity (PSR sort gate)” value does the source give for “QVQLVESGGGLVQAGGSLRLSCAASGFTFVYYAMGWYRQAPGKERELVATISGNGGRTYYADSVKGRFTISRDNAKNTVYLQMNSLKPEDTAVYYCAADVVTYLSYTLDYWGQGTQVTVSS” here?
A: Its value is “low polyreactivity”.

Q: With “QVQLVESGGGLVQAGGSLRLSCAASGGTFALYAMGWYRQAPGKERELVASISFNGGSTYYADSVKGRFTISRDTAKNTVYLQMNSLKPEDTAVYYCNTGYQWGVYESQTAEEDYWGQGTQVTVSS” as the sequence, how does the “polyreactivity (PSR sort gate)” value read?
A: The value was “low polyreactivity”.

Q: Which “polyreactivity (PSR sort gate)” value does the source give for “QVQLVESGGGLVQAGGSLRLSCAASGIFGYNARGWYRQAPGKERELVAAITSSGTSTYYADSVKGRFTISRDNAKNTVYLQMNSLKPEDTAVYYCAALHSGTWTGYGYWGQGTQVTVSS” here?
A: Its value is “low polyreactivity”.

Q: Which “polyreactivity (PSR sort gate)” value does the source give for “QVQLVESGGGLVQAGGSHRLTCAASGITFTVNAMGWYRQAPRKERELVAAISNDGSTYYADSVKGRFTISRDYAKNTVYLQMNSLKPEDTAVYYCAADTWDDFGPYGYDYWGQGTQVTVSS” here?
A: The value was “low polyreactivity”.

Q: Which “polyreactivity (PSR sort gate)” value does the source give for “QVQLVESGGGLVQAGGSLRLSCAASGGIFRFNAMGWYRQAPGKERELVAGISSTYYADSVKGRFTISRDNAKNTVYLQMNSLKPEDTAVYYCAAAGPEEHGYTYPGNNQMEYWGQGTQVTVSS” here?
A: Its value is “low polyreactivity”.

Q: With “QVQLQESGGGLVQAGGSLRQSYAASGYIFPSLAMGWYRQAPGKEREFVAAIGRGSTNNYADSVKGRFTISRDNAKNTAFQHMKSLKPEDTAVYYCAAAASPLTRHLYWGQGTQVSVSS” as the sequence, how does the “polyreactivity (PSR sort gate)” value read?
A: The value was “low polyreactivity”.

Q: Which “polyreactivity (PSR sort gate)” value does the source give for “QVQLVESGGGLVQAGGSLRLSCAASGSIFARNAMGWYRQAPGKERELVASITWSGASTYYADSVKGRFTISRDNAKNTVYLQMNSLKPEDTAVYYCAATDQKLSLDYSSYEYWGQGTQVTVSS” here?
A: Its value is “low polyreactivity”.

Q: With “QVQLVESGGGLVQAGGSLRLICAASGSTFNNNAMGWFRQAPGKERELVAAISYTGGSTYYADSVKGRFTISRDNAKNNVYLQMNSLKPEDTAVYYCAADYPHLGGYRYDYWGQGTQVTVSS” as the sequence, how does the “polyreactivity (PSR sort gate)” value read?
A: The value was “high polyreactivity”.

Q: For “QVQNVESGGGLVQAGGSLRLICAASGSIFDPYAMGRYRQAPGKEMELVAAIRKRGSSTYYADSVKGRFTISRDNAKYTVYLQMNSLKPEDTAVYYCAATWVSVWYRYDYWGQGTQVTVSA”, which “polyreactivity (PSR sort gate)” value is on record?
A: The value was “high polyreactivity”.

Q: With “QVQLVESGGGLVQAGGSLRLSCAASGSTFGSYVMGWYRQAPGKERELVAAISQRGTSTYYADSVKGRFTISRDNAKNTVYLQMNSLKPEDTAVYYCNALYWQIGDDYWGQGTQVTVSS” as the sequence, how does the “polyreactivity (PSR sort gate)” value read?
A: Its value is “high polyreactivity”.

Q: Which “polyreactivity (PSR sort gate)” value does the source give for “QVQLVESGGGLVQAGGSLRLSCAASGSIFEVNAMGWYRQAPGKERELVAGISNADSTNYADSVKGRFTISRDNAKNTVYLQMNSLKPEDTAVYYCATDLYRDHPKDLLGPEYDYWGQGTQVTVSS” here?
A: The value was “low polyreactivity”.

Q: For “QVQLVESGGGLVQAGGSLRLSCAASGFTFYYYAMGWYRQAPGKERELVAAISRSGGSTYYADSVKGRFTISRDNAKNTVYLQMNSLKQEDTAVYYCAARRLVGAERPGYDDWGQGTQVTVSS”, which “polyreactivity (PSR sort gate)” value is on record?
A: The value was “high polyreactivity”.

Q: Which “polyreactivity (PSR sort gate)” value does the source give for “QVQLVESVGGLVQAGGSLRLSCAASGRTFRYNAMGWYRQAPGKERELVASITSGGSTNYADSVKGRFTISRDNAKNTVYLQMNSLKPEDTAVYYCAAEAYFWQYERDYWGQGTQVTLSS” here?
A: The value was “low polyreactivity”.

Q: Which “polyreactivity (PSR sort gate)” value does the source give for “QVQLVESGGGLVQAGGSLRLSCAASGRIFTGNARGWYRQAPGKERELVAGISTSGGSTYYADSVKGRFTISRDNAKNTVYLQMTSLTPEDTAVYYCAAAYVHYVYKYDYWGQGTQVTVSS” here?
A: Its value is “high polyreactivity”.

Q: For “QVQLVESGGGLVQAGGSLRLSCAASGSNFRGNAMAWYRQAPGKERELVAAITYNDGGTYYADSVKGRFTISRDNAMNTVYLQMNLLKPEDTAVYYCAAVGTGNKSILYDYWGQGTQVTVSS”, which “polyreactivity (PSR sort gate)” value is on record?
A: Its value is “low polyreactivity”.
